{"source": "the nanobody polyreactivity screen of Harvey et al. (2022)", "test": "yeast display, Sf9 membrane polyspecificity reagent, FACS + sequencing; frameworks hold sequencing errors", "summary_of_the_method": "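Galactose-induced (36–48 hours) yeast carrying a synthetic nanobody display library were exposed to 10% biotinylated, detergent-solubilized Sf9 membrane reagent at 4 °C for 1 hour. FACS followed streptavidin microbead enrichment, using low and high (top ~1%) gates for expression (anti-HA) and reagent binding (streptavidin). Colony PCR, MiSeq 2 × 250 sequencing and CDR-length filtering followed. Labels for polyreactivity reflect the gate of origin.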", "data": [{"sequence": "QVQLVESGGGLVQAGGSLRLSCAASGSILGYYAMGWYRQAPGKERELVAAITASGGSTYYADSVKGRFTISRDNAKNTVYLQMNSLKPEDTAVYYCAAQYYATYGYWGQGTQVTVSS", "values": [{"measurement": "polyreactivity (PSR sort gate)", "value": "low polyreactivity"}]}, {"sequence": "QVQLVESGGGLVQAGGSLRLSCAASGSILGYYGMGWYRHAPGKERELVAAISSSCNTNYADSVKGRFTISRDNAKNTVYLQMMSLKPEDTAVYYCAASFQYVAYYLYDYWGQGTQVTVSS", "values": [{"measurement": "polyreactivity (PSR sort gate)", "value": "low polyreactivity"}]}, {"sequence": "QVQLVESGGGLVQAGGSLRLSCAASGSILIWNTMGWYRQAPGKERELVAAISISGGSTYYADSVKGRFTISRDNAKNTVYLQVNSLKPEDTAVYYCAAEVAYYYYSWGTSGYWGQGTQVTVSS", "values": [{"measurement": "polyreactivity (PSR sort gate)", "value": "low polyreactivity"}]}, {"sequence": "QVQLVESGGGLVQAGGSLRLSCAASGSILIYNAMAWYRQAPGKEMQLVAGISRRGASTYYADSVKGRFTISRDMAKNTVYLPMNSLKPEDTAVYYCAALGKYIVAWSGDYWGQGTQVNVSS", "values": [{"measurement": "polyreactivity (PSR sort gate)", "value": "low polyreactivity"}]}, {"sequence": "QVQLVESGGGLVQAGGSLRLSCAASGSILKGYALGWYRQAPGKERELVAAITSSGGRTYYADSVKGRFTISRDNAKNTVYLQMNSLKPEDTAVYYCNALGGQWARYDYWGQGTQVTVSS", "values": [{"measurement": "polyreactivity (PSR sort gate)", "value": "high polyreactivity"}]}, {"sequence": "QVQLVESGGGLVQAGGSLRLSCAASGSILLAYVMGWYRPAPGKERELVAAISSGDDTKYADSVKGRFTISRDNAMNTVYLQMNSLKPEDTAVYYCNAYTLDYPYHRFGYWGQGTQVTVSS", "values": [{"measurement": "polyreactivity (PSR sort gate)", "value": "low polyreactivity"}]}, {"sequence": "QVQLVESGGGLVQAGGSLRLSCAASGSILLVYAMGWYRQAPGKERELVATITWTDGSTYYADSVKGRFTISRDNAKNTVYLQMNSLKPEDTAVYYCNAGASVNSPLVAEYYYWGQGTQVTVSS", "values": [{"measurement": "polyreactivity (PSR sort gate)", "value": "low polyreactivity"}]}, {"sequence": "QVQLVESGGGLVQAGGSLRLSCAASGSILLYYSMGWYIQAPGKERELVARISITRDSTYYADSVKGRFTISRDNAKNTVYLQMYSLNPEDTAVYFCAADPVLHYYPSYYTGALDYYWGQGTQVTVSS", "values": [{"measurement": "polyreactivity (PSR sort gate)", "value": "low polyreactivity"}]}, {"sequence": "QVQLVESGGGLVQAGGSLRLSCAASGSILNNYAMGWYRQAPGKERELVAAISSSGGTNYADSVKGRFTISRDNAKYTVYLQMNSLKPEDTAVYYCNADVLDGGYDYWGQGTQVTVSS", "values": [{"measurement": "polyreactivity (PSR sort gate)", "value": "low polyreactivity"}]}, {"sequence": "QVQLVESGGGLVQAGGSLRLSCAASGSILPLYAMGWYRQAPGKERELVATISNAGSTTYADSVKGRFTISRDNAKNTVYLQMNSLKPEDTAVYYCNAESEWGWVYVGYDYWGQGTQVTVSS", "values": [{"measurement": "polyreactivity (PSR sort gate)", "value": "low polyreactivity"}]}, {"sequence": "QVQLVESGGGLVQAGGSLRLSCAASGSILPTNAMGWYRQAPGKERELGASITRSGGSTYYADSVKGRFTISRDNAKNTVYLQMNSLKPEDTAVYYCNARGFTRYTVGRNYWGQGTQVTVSS", "values": [{"measurement": "polyreactivity (PSR sort gate)", "value": "high polyreactivity"}]}, {"sequence": "QVQLVESGGGLVQAGGSLRLSCAASGSILQDYTMGWYRQAPGKERELVAAITWNGGSTYYADSVKGRFTISRDNEKNTVYLHMTSLKPEHTAVYYCAAYCRVVPSFYYWGQGTQVTVSS", "values": [{"measurement": "polyreactivity (PSR sort gate)", "value": "low polyreactivity"}]}, {"sequence": "QVQLVESGGGLVQAGGSLRLSCAASGSILRDYAMGWYRQAPGKERELVAAITTSGAITYYADSVKGRFTISRDNAKNTVYLQMNSLKTEDTAVYYCNAKYVRWYGKYNYWGQGTQVTVSS", "values": [{"measurement": "polyreactivity (PSR sort gate)", "value": "high polyreactivity"}]}, {"sequence": "QVQLVESGGGLVQAGGSLRLSCAASGSILRFNSMGWYRQAPGKERELVATITKGGGRTNYADSVKGRFTISRDNAKKTVYLQMNSLKPQDTSVYYCAEKFIYARYGTFQTDYKIYDYWGQGTQVTVSA", "values": [{"measurement": "polyreactivity (PSR sort gate)", "value": "high polyreactivity"}]}, {"sequence": "QVQLVESGGGLVQAGGSLRLSCAASGSILRIYAMGWYSQAPGKEMELVARITWSGGRTYYADSVKGRFTISRDNAKNTVYLQMNSLKPEDTAVYDCNADLQRWGWEYDYWGQGTQVTVSS", "values": [{"measurement": "polyreactivity (PSR sort gate)", "value": "high polyreactivity"}]}, {"sequence": "QVQLVESGGGLVQAGGSLRLSCAASGSILRLYAMGWYRQAPGNERDLVAAITYRGGRTDYADSVKGRFTISRDTAKNTVYLQLNSLKPEDTAVFYCAAGYLPSPRYSTSYLYYYWGQGTQVTVSS", "values": [{"measurement": "polyreactivity (PSR sort gate)", "value": "high polyreactivity"}]}, {"sequence": "QVQLVESGGGLVQAGGSLRLSCAASGSILRYNAMGWYSQARAKEREWVASISRGGGTNYAYSVKGRFTISRDNAKNTVYLQINSLKQEDTAVYYCAALTLRVDYDSQWYSLVDYWGQGTEVTVSS", "values": [{"measurement": "polyreactivity (PSR sort gate)", "value": "low polyreactivity"}]}]}
